Laboratory results reported in IntAct's records for PubMed 15282298.

B1: Meiosis-inducing protein 1 (Saccharomyces cerevisiae), P21190 (parent)
chain: MQADMHGKLHAALEDGFFLFPFEQQQQPNIYYDTTTDQEDRPCFSFGSTISPRSWHFEKSDKIASSQLQNLVHTQPIHLINPQILFNEEFLNLENIDSQPISKETKTTKDCTMATGPERGKKSSESTRSSSLSSLFSNDESASTFHSSFNNHDNFQKSNRNGDDIDISDTIKYETNTNAQKDIKIFQENFEFNEFPYTQDFYPYTTNYTYSKPTNIHESINSKNTDSYSQYQDQFPPHTDNIHSFNNRHYSNHKSTNCNYYNNTSNNNNASDNVYEADPFIDEPQVPSYYYPLEIAFDVEKSPPPSLQKLNSKELEFLKKLNSKLSRYAAAYSFSSSNDQDYYDKVRFQEISYKFSKTYS
partner: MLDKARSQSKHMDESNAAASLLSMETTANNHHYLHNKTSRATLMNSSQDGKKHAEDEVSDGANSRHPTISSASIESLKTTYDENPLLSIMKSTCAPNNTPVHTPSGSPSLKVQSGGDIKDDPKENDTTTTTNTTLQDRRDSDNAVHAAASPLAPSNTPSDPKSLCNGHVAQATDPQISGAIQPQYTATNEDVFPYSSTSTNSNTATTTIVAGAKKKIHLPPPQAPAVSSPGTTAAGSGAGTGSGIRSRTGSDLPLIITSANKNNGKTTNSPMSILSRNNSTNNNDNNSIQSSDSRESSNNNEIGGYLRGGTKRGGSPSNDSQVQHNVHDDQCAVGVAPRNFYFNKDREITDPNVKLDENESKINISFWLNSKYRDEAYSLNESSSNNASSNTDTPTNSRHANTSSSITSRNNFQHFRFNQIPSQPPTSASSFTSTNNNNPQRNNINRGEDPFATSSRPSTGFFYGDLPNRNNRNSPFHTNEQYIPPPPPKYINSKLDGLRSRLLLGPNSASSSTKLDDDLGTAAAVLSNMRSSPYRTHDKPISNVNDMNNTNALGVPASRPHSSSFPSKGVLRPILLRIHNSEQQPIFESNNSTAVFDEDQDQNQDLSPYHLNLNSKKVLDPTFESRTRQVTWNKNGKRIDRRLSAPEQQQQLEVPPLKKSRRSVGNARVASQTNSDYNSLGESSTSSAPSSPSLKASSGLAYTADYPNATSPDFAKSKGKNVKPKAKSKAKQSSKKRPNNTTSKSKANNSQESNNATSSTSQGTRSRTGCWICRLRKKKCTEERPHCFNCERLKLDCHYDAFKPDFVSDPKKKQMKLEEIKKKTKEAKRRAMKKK

Variants of: B1
Conditions: with ume6_yeast UME6, P39001
MQADMHGKLHAALEDGFFLFPFEQQQQPNIYYDTTTDQEDRPCFSFGSTISPRSWHFEKSDKIASSQLQNLVHTQPIHLINPQILFNEEFLNLENIDSQPISKETKTTKDCTMATGPERGKKSSESTRSSSLSSLFSNDESASTFHSSFNNHDNFQKSNRNGDDIDISDTIKYETNTNAQKDIKIFQENFEFNEFPYTQDFYPYTTNYTYSKPTNIHESINSKNTDSYSQYQDQFPPHTDNIHSFNNRHYSNHKSTNCNYYNNTSNNNNASDNVYEADPFIDEPQVPSYYYPLEIAFDVEKSPPPSLQKLNSKELEFLKKLNSKLSRYAAAYSFSSSNDQDYYDKVRFQEISYKFSKTFS [Y359F] was tested, and the “effect of a mutation on the interaction” value was “decreasing interaction strength”.
MQADMHGKLHAALEDGFFLFPFEQQQQPNIYYDTTTDQEDRPCFSFGSTISPRSWHFEKSDKIASSQLQNLVHTQPIHLINPQILFNEEFLNLENIDSQPISKETKTTKDCTMATGPERGKKSSESTRSSSLSSLFSNDESASTFHSSFNNHDNFQKSNRNGDDIDISDTIKYETNTNAQKDIKIFQENFEFNEFPYTQDFYPYTTNYTYSKPTNIHESINSKNTDSYSQYQDQFPPHTDNIHSFNNRHYSNHKSTNCNYYNNTSNNNNASDNVYEADPFIDEPQVPSYYYPLEIAFDVEKSPPPALQKLNSKELEFLKKLNSKLSRYAAAYSFSSSNDQDYYDKVRFQEISYKFSKTYS [S306A] was tested, and the “effect of a mutation on the interaction” value was “with no effect”.
In the case of MQADMHGKLHAALEDGFFLFPFEQQQQPNIYYDTTTDQEDRPCFSFGSTISPRSWHFEKSDKIASSQLQNLVHTQPIHLINPQILFNEEFLNLENIDSQPISKETKTTKDCTMATGPERGKKSSESTRSSSLSSLFSNDESASTFHSSFNNHDNFQKSNRNGDDIDISDTIKYETNTNAQKDIKIFQENFEFNEFPYTQDFYPYTTNYTYSKPTNIHESINSKNTDSYSQYQDQFPPHTDNIHSFNNRHYSNHKSTNCNYYNNTSNNNNASDNVYEADPFIDEPQVPSYYYPLEIAFDVEKSPPPSLQKLNSKELEFLKKLNSKLSRYAAAYSFSSANDQDYYDKVRFQEISYKFSKTYS [S337A], the “effect of a mutation on the interaction” value is reported as “with no effect”.
MQADMHGKLHAALEDGFFLFPFEQQQQPNIYYDTTTDQEDRPCFSFGSTISPRSWHFEKSDKIASSQLQNLVHTQPIHLINPQILFNEEFLNLENIDSQPISKETKTTKDCTMATGPERGKKSSESTRSSSLSSLFSNDESASTFHSSFNNHDNFQKSNRNGDDIDISDTIKYETNTNAQKDIKIFQENFEFNEFPYTQDFYPYTTNYTYSKPTNIHESINSKNTDSYSQYQDQFPPHTDNIHSFNNRHYSNHKSTNCNYYNNTSNNNNASDNVYEADPFIDEPQVPSYYYPLEIAFDVEKSPPPSLQKLNSKELEFLKKLNSKLSRYAAAYAFSSSNDQDYYDKVRFQEISYKFSKTYS [S333A] was tested, and the “effect of a mutation on the interaction” value was “with no effect”.
MQADMHGKLHAALEDGFFLFPFEQQQQPNIYYDTTTDQEDRPCFSFGSTISPRSWHFEKSDKIASSQLQNLVHTQPIHLINPQILFNEEFLNLENIDSQPISKETKTTKDCTMATGPERGKKSSESTRSSSLSSLFSNDESASTFHSSFNNHDNFQKSNRNGDDIDISDTIKYETNTNAQKDIKIFQENFEFNEFPYTQDFYPYTTNYTYSKPTNIHESINSKNTDSYSQYQDQFPPHTDNIHSFNNRHYSNHKSTNCNYYNNTSNNNNASDNVYEADPFIDEPQVPSYYYPLEIAFDVEKSPPPSLQKLNSKELEFLKKLNSKLSRYAAAYSFSSSNDQDYYDKVRFQEIAYKFAKTYA [S352A;S356A;S360A] was tested, and the “effect of a mutation on the interaction” value was “with no effect”.
With MQADMHGKLHAALEDGFFLFPFEQQQQPNIYYDTTTDQEDRPCFSFGSTISPRSWHFEKSDKIASSQLQNLVHTQPIHLINPQILFNEEFLNLENIDSQPISKETKTTKDCTMATGPERGKKSSESTRSSSLSSLFSNDESASTFHSSFNNHDNFQKSNRNGDDIDISDTIKYETNTNAQKDIKIFQENFEFNEFPYTQDFYPYTTNYTYSKPTNIHESINSKNTDSYSQYQDQFPPHTDNIHSFNNRHYSNHKSTNCNYYNNTSNNNNASDNVYEADPFIDEPQVPSYYYPLEIAFDVEKAPPPSLQKLNSKELEFLKKLNSKLSRYAAAYSFSSSNDQDYYDKVRFQEISYKFSKTYS [S302A] the “effect of a mutation on the interaction” value was “with no effect”.
MQADMHGKLHAALEDGFFLFPFEQQQQPNIYYDTTTDQEDRPCFSFGSTISPRSWHFEKSDKIASSQLQNLVHTQPIHLINPQILFNEEFLNLENIDSQPISKETKTTKDCTMATGPERGKKSSESTRSSSLSSLFSNDESASTFHSSFNNHDNFQKSNRNGDDIDISDTIKYETNTNAQKDIKIFQENFEFNEFPYTQDFYPYTTNYTYSKPTNIHESINSKNTDSYSQYQDQFPPHTDNIHSFNNRHYSNHKSTNCNYYNNTSNNNNASDNVYEADPFIDEPQVPSYYYPLEIAFDVEKDPPPSLQKLNSKELEFLKKLNSKLSRYAAAYSFSSSNDQDYYDKVRFQEISYKFSKTYS [S302D] was tested, and the “effect of a mutation on the interaction” value was “with no effect”.
